This note sets out measurements from publication PMC5536962 (Cell reports, 2015).

Sequences and labels used below:
B1: GST-Mcm4 (1-471) (domain or fragment, yeast, UniProt P30665 1-471, looked up)
chain: MSQQSSSPTKEDNNSSSPVVPNPDSVPPQLSSPALFYSSSSSQGDIYGRNNSQNLSQGEGNIRAAIGSSPLNFPSSSQRQNSDVFQSQGRQGRIRSSASASGRSRYHSDLRSDRALPTSSSSLGRNGQNRVHMRRNDIHTSDLSSPRRIVDFDTRSGVNTLDTSSSSAPPSEASEPLRIIWGTNVSIQECTTNFRNFLMSFKYKFRKILDEREEFINNTTDEELYYIKQLNEMRELGTSNLNLDARNLLAYKQTEDLYHQLLNYPQEVISIMDQTIKDCMVSLIVDNNLDYDLDEIETKFYKVRPYNVGSCKGMRELNPNDIDKLINLKGLVLRSTPVIPDMKVAFFKCNVCDHTMAVEIDRGVIQEPARCERIDCNEPNSMSLIHNRCSFADKQVIKLQETPDFVPDGQTPHSISLCVYDELVDSCRAGDRIEVTGTFRSIPIRANSRQRVLKSLYKTYVDVVHVKKVSD
B2: GST-Mcm6 (1-439) (domain or fragment, yeast, UniProt P53091 1-439, looked up)
chain: MSSPFPADTPSSNRPSNSSPPPSSIGAGFGSSSGLDSQIGSRLHFPSSSQPHVSNSQTGPFVNDSTQFSSQRLQTDGSATNDMEGNEPARSFKSRALNHVKKVDDVTGEKVREAFEQFLEDFSVQSTDTGEVEKVYRAQIEFMKIYDLNTIYIDYQHLSMRENGALAMAISEQYYRFLPFLQKGLRRVVRKYAPELLNTSDSLKRSEGDEGQADEDEQQDDDMNGSSLPRDSGSSAAPGNGTSAMATRSITTSTSPEQTERVFQISFFNLPTVHRIRDIRSEKIGSLLSISGTVTRTSEVRPELYKASFTCDMCRAIVDNVEQSFKYTEPTFCPNPSCENRAFWTLNVTRSRFLDWQKVRIQENANEIPTGSMPRTLDVILRGDSVERAKPGDRCKFTGVEIVVPDVTQLGLPGVKPSSTLDTRGISKTTEGLNSGVTG

Holding throughout (test): pull-down
Experiment [1] addresses T1, Mcm10 (GST tag removed) (yeast, UniProt P32354 1-571).
T1 sequence (looked up): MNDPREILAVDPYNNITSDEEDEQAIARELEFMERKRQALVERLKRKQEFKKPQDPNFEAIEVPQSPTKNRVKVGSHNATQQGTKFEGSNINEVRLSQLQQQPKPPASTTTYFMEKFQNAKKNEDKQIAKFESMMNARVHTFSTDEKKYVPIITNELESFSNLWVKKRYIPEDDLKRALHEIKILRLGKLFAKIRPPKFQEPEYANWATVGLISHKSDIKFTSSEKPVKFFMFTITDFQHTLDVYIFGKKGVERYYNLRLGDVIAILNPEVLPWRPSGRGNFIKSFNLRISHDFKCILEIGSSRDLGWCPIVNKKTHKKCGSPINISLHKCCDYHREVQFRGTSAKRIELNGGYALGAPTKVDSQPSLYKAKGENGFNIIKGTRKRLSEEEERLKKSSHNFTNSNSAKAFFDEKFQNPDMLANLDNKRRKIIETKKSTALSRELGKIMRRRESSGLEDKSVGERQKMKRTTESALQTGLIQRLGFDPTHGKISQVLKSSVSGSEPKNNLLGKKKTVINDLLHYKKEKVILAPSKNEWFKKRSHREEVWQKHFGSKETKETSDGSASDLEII

For experiment [2], the target named is B1.
Experiment [3] addresses T2, GST-Mcm10 (yeast, UniProt P32354 1-571).
T2 sequence (looked up): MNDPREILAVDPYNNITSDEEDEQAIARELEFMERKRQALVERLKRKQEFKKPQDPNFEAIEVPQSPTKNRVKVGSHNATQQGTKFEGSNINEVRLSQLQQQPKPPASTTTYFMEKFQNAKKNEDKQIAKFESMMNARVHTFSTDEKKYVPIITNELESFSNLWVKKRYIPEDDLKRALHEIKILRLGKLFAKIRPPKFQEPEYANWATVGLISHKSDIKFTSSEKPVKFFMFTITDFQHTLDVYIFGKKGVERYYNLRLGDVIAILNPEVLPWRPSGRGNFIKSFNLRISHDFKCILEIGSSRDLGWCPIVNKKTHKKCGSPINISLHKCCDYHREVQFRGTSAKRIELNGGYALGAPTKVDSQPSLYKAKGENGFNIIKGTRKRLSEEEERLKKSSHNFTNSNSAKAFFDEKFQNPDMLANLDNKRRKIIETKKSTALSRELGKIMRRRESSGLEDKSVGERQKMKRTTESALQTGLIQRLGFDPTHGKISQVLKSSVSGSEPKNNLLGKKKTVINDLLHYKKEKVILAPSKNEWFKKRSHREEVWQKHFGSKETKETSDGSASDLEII

Experiment [4] addresses B2.

Turning to B1, the binding result in experiment [1] was “binds”. Regarding B2, the binding result in experiment [1] is recorded as “binds”.

B3: 6His-Mcm2 (1-299) (domain or fragment, yeast, UniProt P29469 1-299, looked up)
chain: MSDNRRRRREEDDSDSENELPPSSPQQHFRGGMNPVSSPIGSPDMINPEGDDNEVDDVPDIDEVEEQMNEVDLMDDNMYEDYAADHNRDRYDPDQVDDREQQELSLSERRRIDAQLNERDRLLRNVAYIDDEDEEQEGAAQLDEMGLPVQRRRRRRQYEDLENSDDDLLSDMDIDPLREELTLESLSNVKANSYSEWITQPNVSRTIARELKSFLLEYTDETGRSVYGARIRTLGEMNSESLEVNYRHLAESKAILALFLAKCPEEMLKIFDLVAMEATELHYPDYARIHSEIHVRISD
For B3, the binding result in experiment [2], in experiment [3] and in experiment [4] was “binds” each time.
